The target of the series is Integration host factor (IHF alpha/beta heterodimer) (Escherichia coli, UniProt P0A6X7;P0A6Y1 SEQ:1-99,SEQ:1-94). Kind of series: footprint; DNase I footprint at 50 nM IHF; hypersensitive site indicative of DNA bending. Conditions: tags: crystallographically pure IHF, gift of Howard Nash, NIH; no tag stated; label: 32P end label.
Chain of Integration host factor (IHF alpha/beta heterodimer) (P0A6X7 whole entry, chain 1 of 2): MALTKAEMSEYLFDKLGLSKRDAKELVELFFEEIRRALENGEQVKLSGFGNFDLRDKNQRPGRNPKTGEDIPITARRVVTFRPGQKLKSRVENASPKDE
Chain of Integration host factor (IHF alpha/beta heterodimer) (P0A6Y1 whole entry, chain 2 of 2): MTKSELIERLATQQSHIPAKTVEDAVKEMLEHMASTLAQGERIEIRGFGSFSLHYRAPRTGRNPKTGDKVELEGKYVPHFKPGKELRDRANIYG

B1: 386 bp BCAL0339-BCAL0340 intergenic region (T6SS gene cluster upstream) (dsDNA)
DNA 1: TCTCAACGATTTA
DNA 2: TAAATCGTTGAGA
In the case of B1, the binding result was “binds”.

Source of the values: US20160175440A1, “COMPOSITIONS AND METHODS FOR THE […] OF BURKHOLDERIA INFECTIONS” (Research Institute at Nationwide Children's Hospital, published 2016).
